Patent US11732029B2, “Methods and compositions for the treatment of wounds” (The University of Chicago, priority 2017, dated 2023)

Experiments:
[1] = target: T1, VEGF-A165 (Homo sapiens, UniProt P15692); assay: Recombinant GF binding to the vWF recombinant protein and A1 HBD peptide (ELISA); conditions: plate coated with vWF protein, A1 domain or HBD peptide, 1 μg/mL GF
T1 construct: All growth factors (GFs) and chemokines were purchased in their mature forms; purchased PeproTech; host or cells: Escherichia coli
T1 sequence (P15692 27-191 isoform P15692-4 limits assumed): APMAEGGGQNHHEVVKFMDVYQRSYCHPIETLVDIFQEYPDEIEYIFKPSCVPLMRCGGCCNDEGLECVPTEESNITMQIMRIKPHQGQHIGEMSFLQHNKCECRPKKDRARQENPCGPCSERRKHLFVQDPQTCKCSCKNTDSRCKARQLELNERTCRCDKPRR
Protocol: ELISA tests were performed as described above. In brief, ELISA plates were coated with 1 μg/mL of FL-vWF (WT or R1341Q), 1 μg/mL of vWF A1 recombinant protein (U-Protein Express) or 1 μg/mL of vWF A1 HBD peptide (sequence […], (SEQ ID NO:50) chemically synthesized by Genscript) at 37° C. overnight. After blocking with 2% BSA solution containing PBS-T, 1 μg/mL of the recombinant human proteins VEGF-A121, VEGF-A165, PlGF-1, PlGF-2, PDGF-BB, FGF-2, CXCL-12α and CXCL-12γ were added. 1 μg/mL of BSA served as non-binding protein control. Bound GF or chemokine was detected with biotinylated antibodies for human VEGF-A, PlGF, PDGF-BB, FGF-2, or CXCL-12 (R & D Systems). The antibodies were detected by streptavidin-HRP (R & D Systems). Color development and the absorbance measurement were done as described above.

[2] = target: T2, BMP-7 (Homo sapiens, UniProt P18075); assay: vWF binding to recombinant GFs (ELISA); conditions: VEGF-A121 signal as baseline
T2 construct: All GFs and chemokines were purchased in their mature forms; purchased PeproTech; host or cells: eukaryotic cells (not further specified)
T2 sequence (P18075 293-431): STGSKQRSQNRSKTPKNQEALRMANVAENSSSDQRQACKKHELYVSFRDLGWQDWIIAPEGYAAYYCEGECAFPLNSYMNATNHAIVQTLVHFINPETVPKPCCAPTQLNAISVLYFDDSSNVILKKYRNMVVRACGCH
Protocol: (§1) ELISA tests were performed as previously reported1. In brief, ELISA plates (med-binding, Greiner Bio-One) were coated with 50 nM GFs at 37° C. for 2 hrs. After blocking with 2% BSA solution containing PBS-T, 1 μg/mL of plasma-derived vWF (EMD Millipore) was added. Bound vWF was detected with 1 μg/mL of rabbit anti-human vWF antibody (Sino Biological). Then, HRP conjugated goat anti-rabbit antibody (Jackson ImmunoResearch) was added. After 60 min of incubation, 50 μL TMB substrate (Sigma-Aldrich) was added. The reaction was stopped by adding 25 μL of 2N H2SO4. Subsequently, the absorbance at 450 nm was measured and subtracted the absorbance at 570 nm.

[3] = target: T3, CXCL-11 (Homo sapiens, UniProt O14625); assay: vWF binding to recombinant GFs (ELISA); conditions: VEGF-A121 signal as baseline
T3 construct: All growth factors (GFs) and chemokines were purchased in their mature forms; purchased PeproTech; host or cells: Escherichia coli
T3 sequence (O14625 22-94): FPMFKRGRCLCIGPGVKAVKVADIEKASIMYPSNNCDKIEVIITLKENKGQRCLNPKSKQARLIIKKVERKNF
Protocol: as §1

[4] = target: T4, CXCL-12α (Homo sapiens, UniProt P48061); assay: vWF binding to recombinant GFs (ELISA); conditions: VEGF-A121 signal as baseline
T4 construct: All GFs and chemokines were purchased in their mature forms; purchased PeproTech; host or cells: Escherichia coli
T4 sequence (P48061 22-89 limits assumed): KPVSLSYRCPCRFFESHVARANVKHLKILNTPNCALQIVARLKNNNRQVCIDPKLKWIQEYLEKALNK
Protocol: as §1

[5] = target: T5, EGF (Homo sapiens, UniProt P01133); assay: vWF binding to recombinant GFs (ELISA); conditions: VEGF-A121 signal as baseline
T5 construct: All GFs and chemokines were purchased in their mature forms; purchased PeproTech; host or cells: Escherichia coli
T5 sequence (P01133 971-1023 limits assumed): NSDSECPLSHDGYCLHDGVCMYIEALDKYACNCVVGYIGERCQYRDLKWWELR
Protocol: as §1

[6] = target: T6, FGF-1 (Homo sapiens, UniProt P05230); assay: vWF binding to recombinant GFs (ELISA); conditions: VEGF-A121 signal as baseline
T6 construct: All GFs and chemokines were purchased in their mature forms; purchased PeproTech; host or cells: Escherichia coli
T6 sequence (P05230 16-155 limits assumed): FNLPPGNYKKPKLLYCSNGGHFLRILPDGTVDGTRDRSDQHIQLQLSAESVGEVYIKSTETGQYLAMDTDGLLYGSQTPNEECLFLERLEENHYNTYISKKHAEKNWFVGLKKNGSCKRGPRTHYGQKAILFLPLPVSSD
Protocol: as §1

[7] = target: T7, FGF-18 (Homo sapiens, UniProt O76093); assay: vWF binding to recombinant GFs (ELISA); conditions: VEGF-A121 signal as baseline
T7 construct: All GFs and chemokines were purchased in their mature forms; purchased PeproTech; host or cells: Escherichia coli
T7 sequence (O76093 28-207): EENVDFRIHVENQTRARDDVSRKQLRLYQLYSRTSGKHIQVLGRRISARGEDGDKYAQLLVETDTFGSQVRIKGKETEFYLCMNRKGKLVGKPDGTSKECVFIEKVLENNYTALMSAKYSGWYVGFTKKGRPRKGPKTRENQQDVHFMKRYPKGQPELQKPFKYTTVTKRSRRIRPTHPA
Protocol: as §1

[8] = target: T8, FGF-7 (Homo sapiens, UniProt P21781); assay: vWF binding to recombinant GFs (ELISA); conditions: VEGF-A121 signal as baseline
T8 construct: All GFs and chemokines were purchased in their mature forms; purchased PeproTech; host or cells: Escherichia coli
T8 sequence (P21781 32-194): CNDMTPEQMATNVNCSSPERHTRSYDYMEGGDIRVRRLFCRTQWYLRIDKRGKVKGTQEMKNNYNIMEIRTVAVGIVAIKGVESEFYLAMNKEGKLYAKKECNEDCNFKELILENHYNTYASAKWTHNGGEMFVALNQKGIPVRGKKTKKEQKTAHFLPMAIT
Protocol: as §1

[9] = target: T9, IGF-I (Homo sapiens, UniProt P05019); assay: vWF binding to recombinant GFs (ELISA); conditions: VEGF-A121 signal as baseline
T9 construct: All GFs and chemokines were purchased in their mature forms; purchased PeproTech; host or cells: Escherichia coli
Protocol: as §1

[10] = target: T10, IGF-II (Homo sapiens, UniProt P01344); assay: vWF binding to recombinant GFs (ELISA); conditions: VEGF-A121 signal as baseline
T10 construct: All GFs and chemokines were purchased in their mature forms; purchased PeproTech; host or cells: Escherichia coli
Protocol: as §1

[11] = target: T11, NT-3 (Homo sapiens, UniProt P20783); assay: vWF binding to recombinant GFs (ELISA); conditions: VEGF-A121 signal as baseline
T11 construct: All GFs and chemokines were purchased in their mature forms; purchased PeproTech; host or cells: Escherichia coli
T11 sequence (P20783 139-257): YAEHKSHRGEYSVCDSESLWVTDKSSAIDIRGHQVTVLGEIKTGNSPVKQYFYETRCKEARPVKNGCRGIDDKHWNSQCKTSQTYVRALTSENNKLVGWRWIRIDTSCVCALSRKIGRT
Protocol: as §1

[12] = target: T12, PDGF-AA (Homo sapiens, UniProt P04085); assay: vWF binding to recombinant GFs (ELISA); conditions: VEGF-A121 signal as baseline
T12 construct: All GFs and chemokines were purchased in their mature forms; purchased PeproTech; host or cells: Escherichia coli
Protocol: as §1

[13] = target: T13, PDGF-CC (Homo sapiens, UniProt Q9NRA1); assay: vWF binding to recombinant GFs (ELISA); conditions: VEGF-A121 signal as baseline
T13 construct: All GFs and chemokines were purchased in their mature forms; purchased PeproTech; host or cells: Escherichia coli
T13 sequence (Q9NRA1 235-345 limits assumed): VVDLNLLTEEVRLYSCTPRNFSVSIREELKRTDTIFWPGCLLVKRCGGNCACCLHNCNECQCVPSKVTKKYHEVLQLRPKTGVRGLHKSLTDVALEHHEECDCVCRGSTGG
Protocol: as §1

[14] = target: T14, PDGF-DD (Homo sapiens, UniProt Q9GZP0); assay: vWF binding to recombinant GFs (ELISA); conditions: VEGF-A121 signal as baseline
T14 construct: All GFs and chemokines were purchased in their mature forms; purchased PeproTech; host or cells: eukaryotic cells (not further specified)
T14 sequence (Q9GZP0 250-370 limits assumed): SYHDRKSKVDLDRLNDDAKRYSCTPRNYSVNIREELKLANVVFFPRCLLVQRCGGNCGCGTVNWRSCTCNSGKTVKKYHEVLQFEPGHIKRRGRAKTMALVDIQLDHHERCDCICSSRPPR
Protocol: as §1

[15] = target: T15, TGF-β1 (Homo sapiens, UniProt P01137); assay: vWF binding to recombinant GFs (ELISA); conditions: VEGF-A121 signal as baseline
T15 construct: All GFs and chemokines were purchased in their mature forms; purchased PeproTech; host or cells: eukaryotic cells (not specified)
T15 sequence (P01137 279-390 limits assumed, species assumed): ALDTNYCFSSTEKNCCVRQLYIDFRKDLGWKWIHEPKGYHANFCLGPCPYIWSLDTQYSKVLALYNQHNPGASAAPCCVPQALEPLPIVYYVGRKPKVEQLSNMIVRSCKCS
Protocol: as §1

[16] = target: T16, TGF-β3 (Homo sapiens, UniProt P10600); assay: vWF binding to recombinant GFs (ELISA); conditions: VEGF-A121 signal as baseline
T16 construct: All GFs and chemokines were purchased in their mature forms; purchased PeproTech; host or cells: eukaryotic cells (not specified)
T16 sequence (P10600 301-412 limits assumed): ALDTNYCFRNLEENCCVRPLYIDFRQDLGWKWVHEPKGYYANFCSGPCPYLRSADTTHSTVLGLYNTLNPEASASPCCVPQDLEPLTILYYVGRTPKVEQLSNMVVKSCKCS
Protocol: as §1

[17] = target: T1, VEGF-A165; assay: vWF binding to recombinant GFs (ELISA); conditions: VEGF-A121 signal as baseline
Protocol: as §1

[18] = target: T17, β-NGF (Homo sapiens, UniProt P01138); assay: vWF binding to recombinant GFs (ELISA); conditions: VEGF-A121 signal as baseline
T17 construct: All GFs and chemokines were purchased in their mature forms; purchased PeproTech; host or cells: Escherichia coli
T17 sequence (P01138 122-241, species assumed): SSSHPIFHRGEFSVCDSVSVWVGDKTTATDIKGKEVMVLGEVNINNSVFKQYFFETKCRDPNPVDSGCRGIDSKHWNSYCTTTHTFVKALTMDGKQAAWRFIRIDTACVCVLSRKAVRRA
Protocol: as §1

binding to VEGF-A165 [1]	Substance	vWF binding to BMP-7 [2]	vWF binding to CXCL-11 [3]	vWF binding to CXCL-12α [4]	vWF binding to EGF [5]	vWF binding to FGF-1 [6]	vWF binding to FGF-18 [7]	vWF binding to FGF-7 [8]	vWF binding to IGF-I [9]	vWF binding to IGF-II [10]	vWF binding to NT-3 [11]	vWF binding to PDGF-AA [12]	vWF binding to PDGF-CC [13]	vWF binding to PDGF-DD [14]	vWF binding to TGF-β1 [15]	vWF binding to TGF-β3 [16]	vWF binding to VEGF-A165 [17]	vWF binding to β-NGF [18]
showed binding	YIGLKDRKRPSELRRIASQVKYAC [vWF HBD]																	
	vWF: human plasma-derived von Willebrand factor (EMD Millipore)	not	bound	did not	did not show binding	not	bound	bound	Neither insulin-like growth factor-I (IGF-I) nor IGF-II bound	Neither insulin-like growth factor-I (IGF-I) nor IGF-II bound	relevant binding	bound	bound	bound	strong binding	not	bound	relevant binding
